How the values were obtained:
[1] = biological target: T1, human ROR1 expressed on the cell surface (human, UniProt Q01973 30-937); test: flow cytometry on HCC1143 cells (breast cancer), C2E3 IgG at 10 µg/mL, MFI of anti-ROR1 / MFI of 2nd Ab
T1 construct: whole, on cells; On JeKo-1 and Mino cells and other cancer cell lines (endogenous) and on transfected CHO and MC38 cells; also called cell surface-expressed ROR1; CHO-human ROR1
Method: (§1) For the cell lines, the binding to ROR1 was analyzed with FACS (FACSCalibur, BD Biosciences) by using the anti-ROR1 antibody of the present invention.
(§2) Specifically, after disassociating each cell line and washing in PBS, the number of cells was counted and set as 2 ×10^5 cells/200 µl PBS, and then the clone C2E3 among ROR1 monoclonal antibodies prepared in Example 3 was treated in 10 µg/mL, and it was reacted at 4° C. for 1 hour. After reaction, cells were washed in PBS, and then the FITC-labeled constant region (Fc)-specific antibody (Goat anti-human IgG FITC conjugate, Fc specific, Sigma, F9512, concentration: 2.0 mg/ml) was suspended in 2 µl/1 ×10^5 cells/200 µl PBS, and it was reacted at 4° C. for 1 hour. After reaction, cells were washed in PBS, it was analyzed using a FACSCalibur device. The negative control group was treated only with the FITC-labeled constant region (Fc)-specific antibody. To compare the expression degrees of ROR1 among the cancer cell lines, the value of the result for the peak shift in the experimental group treated with the ROR1 monoclonal antibody (C2E3) of the present invention was divided by the result for the peak shift in the control group (Mean Fluorescence Intensity Ratio MFI Ratio: MFI of anti-ROR1/MFI of 2nd Ab).

[2] = biological target: T1, human ROR1 expressed on the cell surface; test: flow cytometry on AGS cells (gastric cancer), C2E3 IgG at 10 µg/mL, MFI of anti-ROR1 / MFI of 2nd Ab
Method: as §1, §2

[3] = biological target: T1, human ROR1 expressed on the cell surface; test: flow cytometry on HCC1187 cells (breast cancer), C2E3 IgG at 10 µg/mL, MFI of anti-ROR1 / MFI of 2nd Ab
Method: as §1, §2

[4] = biological target: T1, human ROR1 expressed on the cell surface; test: flow cytometry on NCI-H1975 cells (lung cancer), C2E3 IgG at 10 µg/mL, MFI of anti-ROR1 / MFI of 2nd Ab
Method: as §1, §2

[5] = biological target: T2, recombinant ROR1-His (Sino Biological, 13968-H08H) (human, UniProt Q01973 30-406); test: BLI (Octet), ROR1-His loaded on biosensor, IgG in solution, 1:1 fitting
T2 construct: extracellular domain; Bought; also called human ROR1 antigen; not shown: His tag
Method: A 96 well black microplate (greiner bio one) in a biosensor tray case was installed, and 200 µl of 10×KB or D.W was put in 8 wells each. 8 sensors, Anti Penta His biosensors or AR2G biosensors (ForteBio, USA), were placed for 10 min for hydration. 600 µl of Analytic samples were diluted 2 folds or 3 folds to desired concentrations. It was diluted using 1×KB or 10×KB to reach a concentration of 30~0.021 nM. For antigen fixation, 1 µg/mL of a recombinant ROR1-His (Sino Biological, 13968-H08H) was diluted with 10×KB or Sodium Acetate pH5 buffer. For fixation, threshold was set to be 0.3 nmat the loading step. The experiment was performed for 3 min~10 min of association and for 20 min of dissociation. The prepared buffer was put into a new 96 well black microplate in accordance with octet program template in order. 10×KB or D.W 200 µl used as Baseline1 was put. 200 µl of the antigen ROR1-His protein (1 µg/mL) was loaded. 10×KB or D.W 200 µl used as Baseline2 was put. 200 µl of 10×KB buffer or 1×KB corresponding the diluted antibody in 30~0.021 nM, Reference blank was put into each well. The temperature of the experimental plate was fixed at 30° C. After placing all samples, the device was activated. After the experiment was finished, the result was uploaded on Octet Analysis 9.0 software, and then KD value was calculated using 1:1 fitting, and the result was described in the following Table 6. […]

[6] = biological target: T1, human ROR1 expressed on the cell surface; test: flow cytometry on MDA-MB-231 cells (breast cancer), C2E3 IgG at 10 µg/mL, MFI of anti-ROR1 / MFI of 2nd Ab
Method: as §1, §2

[7] = biological target: T1, human ROR1 expressed on the cell surface; test: flow cytometry on BT20 cells (breast cancer), C2E3 IgG at 10 µg/mL, MFI of anti-ROR1 / MFI of 2nd Ab
Method: as §1, §2

[8] = biological target: T1, human ROR1 expressed on the cell surface; test: flow cytometry on A549 cells (lung cancer), C2E3 IgG at 10 µg/mL, MFI of anti-ROR1 / MFI of 2nd Ab
Method: as §1, §2

[9] = biological target: T1, human ROR1 expressed on the cell surface; test: flow cytometry on DLD-1 cells (colon cancer), C2E3 IgG at 10 µg/mL, MFI of anti-ROR1 / MFI of 2nd Ab
Method: as §1, §2

[10] = biological target: T1, human ROR1 expressed on the cell surface; test: flow cytometry on MDA-MB-468 cells (breast cancer), C2E3 IgG at 10 µg/mL, MFI of anti-ROR1 / MFI of 2nd Ab
Method: as §1, §2

[11] = biological target: T1, human ROR1 expressed on the cell surface; test: flow cytometry on HCT116 cells (colon cancer), C2E3 IgG at 10 µg/mL, MFI of anti-ROR1 / MFI of 2nd Ab
Method: as §1, §2

[12] = biological target: T1, human ROR1 expressed on the cell surface; test: flow cytometry on BT474 cells (breast cancer), C2E3 IgG at 10 µg/mL, MFI of anti-ROR1 / MFI of 2nd Ab
Method: as §1, §2

T1 sequence (Q01973 30-937): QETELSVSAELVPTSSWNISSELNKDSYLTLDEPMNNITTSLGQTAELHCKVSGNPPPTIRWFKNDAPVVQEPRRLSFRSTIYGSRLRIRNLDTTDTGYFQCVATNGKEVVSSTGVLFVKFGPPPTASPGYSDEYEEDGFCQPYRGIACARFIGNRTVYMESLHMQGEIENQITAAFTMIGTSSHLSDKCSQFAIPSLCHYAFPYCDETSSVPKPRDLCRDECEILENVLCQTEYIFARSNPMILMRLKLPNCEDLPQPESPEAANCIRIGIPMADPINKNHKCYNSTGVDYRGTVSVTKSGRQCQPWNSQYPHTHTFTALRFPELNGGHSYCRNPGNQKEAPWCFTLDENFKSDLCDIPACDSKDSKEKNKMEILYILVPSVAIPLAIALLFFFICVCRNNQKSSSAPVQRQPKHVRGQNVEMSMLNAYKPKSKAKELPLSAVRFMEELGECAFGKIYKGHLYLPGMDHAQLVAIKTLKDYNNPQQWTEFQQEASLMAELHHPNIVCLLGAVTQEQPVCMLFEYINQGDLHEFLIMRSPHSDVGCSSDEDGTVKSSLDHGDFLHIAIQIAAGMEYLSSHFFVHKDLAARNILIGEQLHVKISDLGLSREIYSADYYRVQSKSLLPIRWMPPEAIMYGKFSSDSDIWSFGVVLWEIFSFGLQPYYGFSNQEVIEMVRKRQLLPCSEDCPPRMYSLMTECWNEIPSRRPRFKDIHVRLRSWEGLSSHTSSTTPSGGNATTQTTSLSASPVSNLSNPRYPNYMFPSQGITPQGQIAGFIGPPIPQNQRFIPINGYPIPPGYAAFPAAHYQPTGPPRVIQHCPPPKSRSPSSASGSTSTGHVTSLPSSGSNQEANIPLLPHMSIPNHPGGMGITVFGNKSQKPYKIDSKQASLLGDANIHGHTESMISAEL
T2 sequence (Q01973 30-406): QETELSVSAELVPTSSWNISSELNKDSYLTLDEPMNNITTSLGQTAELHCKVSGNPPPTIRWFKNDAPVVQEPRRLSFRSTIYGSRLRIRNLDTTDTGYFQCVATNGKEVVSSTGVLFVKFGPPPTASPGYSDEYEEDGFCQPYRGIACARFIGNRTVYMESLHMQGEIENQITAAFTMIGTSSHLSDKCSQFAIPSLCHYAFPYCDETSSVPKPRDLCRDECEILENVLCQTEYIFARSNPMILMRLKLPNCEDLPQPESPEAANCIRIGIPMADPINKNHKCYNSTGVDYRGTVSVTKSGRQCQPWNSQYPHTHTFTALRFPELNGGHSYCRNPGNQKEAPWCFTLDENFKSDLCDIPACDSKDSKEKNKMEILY

B1: C2E3 anti-ROR1 IgG antibody (antibody, V domains shown)
VH: EVQLLESGGGLVQPGGSLRLSCAASGFTFSNYAMSWVRQAPGKGLEWVSSISHNSGSTYYADSVKGRFTISRDNSKNTLYLQMNSLRAEDTAVYYCAKFISARKSLGRSYSNGMDVWGQGTLVTVSS
VL: QSVLTQPPSASGTPGQRVTISCTGSSSNIGSNDVTWYQQLPGTAPKLLIYADSKRPSGVPDRFSGSKSGTSASLAISGLRSEDEADYYCGTWDYSLSGYVFGGGTKLTVLG
Mean Fold Ratio [1]: 3.2
Mean Fold Ratio [2]: 12.3
Mean Fold Ratio [3]: 9.3
Mean Fold Ratio [4]: 4.2
Kd [5]: 424 pM
koff [5]: 0.00231 s⁻¹
Mean Fold Ratio [6]: 8.8
Mean Fold Ratio [7]: 3
Mean Fold Ratio [8]: 6
Mean Fold Ratio [9]: 17.6
Mean Fold Ratio [10]: 6.4
Mean Fold Ratio [11]: 18
Mean Fold Ratio [12]: 1.7
